The supplement of paper PMC9170038

Tested on: MS2 coat protein
Experiment: apparent KD of MS2 coat protein; designed switch direction (-1 OFF switch, 1 ON switch): -1; higher = weaker reporter binding
Method in brief: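 The reported apparent KD is a per-design median over clusters, from curve fits of normalised cluster fluorescence. Protein titrations used SNAP-549-labelled MS2 coat protein, doubled from 0.7 or 1.5 nM to 3 µM, in Tris-HCl pH 7.5 buffer with KCl, MgCl2, BSA, DTT, tRNA and Tween-20, with no input, 200 uM small-molecule ligand, or an oligonucleotide input. The RNA switches were transcribed on Illumina chips by stalled E. coli RNA polymerase.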

[1] = input ligand: microRNA oligo, concentration not stated
[2] = Eterna round: R95, input ligand: FMN 200 uM
[3] = Eterna round: R95, input ligand: microRNA oligo, concentration not stated
[4] = Eterna round: R95, input ligand: none

| Sequence | apparent KD of MS2 coat protein (input ligand: FMN 200 uM) | apparent KD of MS2 coat protein [1] | apparent KD of MS2 coat protein (input ligand: none) | apparent KD of MS2 coat protein [2] | apparent KD of MS2 coat protein [3] | apparent KD of MS2 coat protein [4] |
| --- | --- | --- | --- | --- | --- | --- |
| UUAAAUCAUGUAGGAUAUGCGUGGAGAAGCUAUGCAGAAGGACAUGAGGAUCACCCAUGUGCUUCCGUCUGCGUACAGAUGGUA [Mat - Exclusion NG 1 - Mod of JL - D7] (Eterna round: R96, puzzle: Exclusion NG 1) | 84.5 nM | 17.1 nM | 19.5 nM | – | – | – |
| UCUACGUCAGGAUAUACAAGCGGUGCUCUGAUGCUGUCCAGACAUGAGGAUCACCCAUGUAGAAGGGACGACAA [Eternabot (L1) Solution 68] (Eterna round: R97, puzzle: Exclusion 2) | 42.6 nM | – | 365 nM | – | – | – |
| GUAAACGAUCAGGAUAUAUCAAAUCAUAGCUUGAUAGAAGGGAUCACAUGAGGAUCACCCAUGUGAUCUUCUUU [jl-ex6-4.15 ViennaUCT mod] (Eterna round: R97, puzzle: Exclusion 6) | 13.2 nM | – | 13.9 nM | – | – | – |
| CAGUACAGAGGAUAUACAUGAGGAUCACCCAUGUGUUUCAGGUACGAGAGUACCGAAUGUAGAAGGCUGUACUG [jl-ex3-4.27 salish99 mod] (Eterna round: R97, puzzle: Exclusion 3) | 229 nM | – | 24.5 nM | – | – | – |
| UUUUGGCAUGUAGGAUAUGGGUCCGAUUAGGAUUUAGAAGGACAUGAGGAUCACCCAUGUGCAUUUAAUUGGUCAUUACCUUUU [EXclNG1-LROPPY11] (Eterna round: R96, puzzle: Exclusion NG 1) | – | 65.5 nM | – | – | – | – |
| UAUACUAGAUAGGAUAUACUAUAUAAAUAAUUCGUAGAAGGAUCUACAUGAGGAUCACCCAUGUUAACAGCAGU [JR_E6_Sub005] (puzzle: Exclusion 6) | – | – | – | 30.7 nM | 46.6 nM | 46.6 nM |
| AGUACUAACACGAAAGUGUUAGUACAAUAAGCUAGUGGAACAUGAGGAUCACCCAUGUCCUCAUUAGCUCGUCUUAG [Mat - Sensor v3 - Turn-off var 2 - D35] (puzzle: Sensor v3, turn-off variant 2) | – | – | – | 15.4 nM | 39.7 nM | 15.1 nM |
| UUUUUGUCAGGAUAUGACUAGAUGCACGUUAGUGUAUUUACUUAGAAGGGACAUGAGGAUCACCCAUGUAUUCC [Bring Us a Shrubbery-13] (puzzle: Exclusion 4) | – | – | – | – | 26.2 nM | – |
| CAAACAAGCGAAAGAUCCCACAUGAGGAUCACCCAUGUGCUCGUCUUAUAAGGUACUGUGACGAUAGUCACGGUACC [Mat - Sensor, turn-off var - Eli Mod - D79] (Eterna round: R97, puzzle: Sensor, turn-off variant 1) | 36.8 nM | – | 45.2 nM | – | – | – |
| CUCGUGUGAGGAUAUUCACACCCGUUGCAGCGACGGACAAAGAAGAAGGCACAUGAGGAUCACCCAUGUAAAGA [Onan] (Eterna round: R97, puzzle: Exclusion 4) | 97.8 nM | – | 192 nM | – | – | – |
| CGACGUGGAGUGAGGAUAUCGUGUUCGAAAGAACGUGAGAAGGCACAUGAGGAUCACCCAUGUGAUUCACGUCG [Omei Ex4B A5] (Eterna round: R97, puzzle: Brourd's mod of Exclusion 4) | 27.7 nM | – | 20.6 nM | – | – | – |
| CGUGCGUAUGUGAGGAUAUGCUGGUCCUUGGAUCGGCAGAAGGCACAUGAGGAUCACCCAUGUGGUGUCGUGCA [salish99_Bmod_ex4_090] (puzzle: Brourd's mod of Exclusion 4) | – | – | – | – | 190 nM | – |
| AUCUCUCGUGUUAGGAUAUCCAGUUAGUUCGUGCGGGAGAAGGAACAUGAGGAUCACCCAUGUAAACAAAUCGC [BmEX4 B.21] (Eterna round: R97, puzzle: Brourd's mod of Exclusion 4) | 52.1 nM | – | 18.5 nM | – | – | – |
| UUUGUUUAUGUAGGAUAUGCCUGGCGUGCCUUUGCAGAAGGACAUGAGGAUCACCCAUGUAUUGCGGUCUGCGUUCAGAUCGCU [salish99_ExNG1_r4_037] (Eterna round: R96, puzzle: Exclusion NG 1) | 37.1 nM | 26.8 nM | 34.8 nM | – | – | – |
| AAUAAACAUGAGGAUCACCCAUGUGAGGAUAUACAGAUUAUAAGAAAAAAAAAAAAAAGUAGAAGGCACAUAUA [Default title] (Eterna round: R96, puzzle: Exclusion 1) | 39.6 nM | 29.9 nM | 37.6 nM | – | – | – |
| UUUGCAAGCUUAUGAUCCCACAUGAGGAUCACCCAUGUUCCUGGCCGUGAGGCUAGGAUAACAUAUGCUCGUCUUAU [JL TOV1 3.64] (Eterna round: R97, puzzle: Sensor, turn-off variant 1) | 703 nM | – | 814 nM | – | – | – |
| CACAAGCUUGGGCUCGCUGACAUGAGGAUCACCCAUGUCGGAUCAGACACCAAACGUCUCGAUCACGACGGAUCCAG [Eternabot (Original) Solution 7] (Eterna round: R97, puzzle: Sensor, turn-off variant 1) | 40 nM | – | 33.3 nM | – | – | – |

| Sequence | apparent KD of MS2 coat protein (input ligand: FMN 200 uM) | apparent KD of MS2 coat protein [1] | apparent KD of MS2 coat protein (input ligand: none) | apparent KD of MS2 coat protein [2] | apparent KD of MS2 coat protein [3] | apparent KD of MS2 coat protein [4] |
| --- | --- | --- | --- | --- | --- | --- |
| ACAUGGAAGCAGGAUAUGCUUGUAUAAUUGAAAGCAGAAGGGCUAACAUGAGGAUCACCCAUGUAAGAGGUCUA [JR_E6_Sub060] (puzzle: Exclusion 6) | – | – | – | 91 nM | 21 nM | 24.7 nM |
| GCCUGUGAAGGAUAUACAUGAGGAUCACCCAUGUGGCGGAUAUACCCGCCGAGACCGUGUAGAAGGUCAUAGUA [Xezauser] (puzzle: Exclusion 3) | – | – | – | – | 36.1 nM | – |
| ACAAAUCAUGUAGGAUAUGCGUGGCGAAGCUAUGCAGAAGGACAUGAGGAUCACCCAUGUGCUUCCGUCUGCGUACAGACGGUA [Mat - Exclusion NG 1 - Mod of JL - D16] (Eterna round: R96, puzzle: Exclusion NG 1) | 75.3 nM | 64.6 nM | 91.5 nM | – | – | – |
| GGUUCGAAUGUGAGGAUAUGCUGGUCCUUGGAUCAGCAGAAGGCACAUGAGGAUCACCCAUGUGGUAACGGACC [Mat - Exclusion 4 - Eli Mod - D36] (Eterna round: R97, puzzle: Brourd's mod of Exclusion 4) | 178 nM | – | 357 nM | – | – | – |
| UUUAAUUUUUUUUUUUUACAAGCUUUUUGCUCGUCUUAUACAUGAGGAUCACCCAUGUGGGUGAAAGGUAAAUUAUC [JMF 64] (puzzle: Sensor v3, turn-off variant 2) | – | – | – | 46.8 nM | 21 nM | 54.2 nM |
| AAGAAACAUGAGGAUCACCCAUGUGAGGAUAUGAUAAAGAAAAGAAAAGAAAGAAGAUUCAGAAGGCACAAAGG [salish99-ex1_r3_034] (puzzle: Exclusion 1) | – | – | – | 62.3 nM | 39.4 nM | 48.7 nM |
| CAUUUGUGAGGAUAUCAGGUGUGCUAGCGUACUGGUACAUCUGAGAAGGCACAUGAGGAUCACCCAUGUUCCUU [Mat - Exclusion 4 - Mod of JL - D36] (puzzle: Exclusion 4) | – | – | – | – | 12.8 nM | – |
| ACAUGAGGAUCACCCAUGUUAGGUUGGUUUUCUCCGGCUGUUGAGGAUAUAGUCCGGUAUCCGCGCUAGAAGGUGAGGGUUGGC [Aenatbe mod 9] (Eterna round: R96, puzzle: Exclusion NG 3) | 61.9 nM | 60 nM | 64.9 nM | – | – | – |
| AGUAACAGAGGAUAUACUGUUUUAUGUGUUUGUUAUUUUAAACAUGAGGAUCACCCAUGUAGAAGGCUGAAUAA [JMF 83] (puzzle: Exclusion 2) | – | – | – | – | 21.4 nM | – |
| AAGAAACAUGAGGAUCACCCAUGUCAGGAUAUCUCGAAAAGCAUAGAAAUAUGCGAAGAGAGAAGGGACUGCCC [ChP Ext 10-04-2015 #2] (puzzle: Exclusion 1) | – | – | – | 20.8 nM | 19.3 nM | 19.2 nM |
| CUAAAUCAUGUAGGAUAUGCGUGGCGAAGCUAUGCAGAAGGACAUGAGGAUCACCCAUGUGCUUCCGUCUGAGAACAGACGGAA [Mat - Exclusion NG 1 - Mod of JL - D26] (Eterna round: R96, puzzle: Exclusion NG 1) | 115 nM | 277 nM | 251 nM | – | – | – |
| UAUUCGCAAGCGAGAUCCCACAUGAGGAUCACCCAUGUGCUCGUCUUAUAAGGUACUGUGACGAUAGUCACGGUACC [Mat - Sensor, turn-off var - Eli Mod - D81] (Eterna round: R97, puzzle: Sensor, turn-off variant 1) | 16.7 nM | – | 16.3 nM | – | – | – |
| GAUCAUGCAGGAUAUACAUGGAACAUGAAAUCAUGAAUUUCACAUGAGGAUCACCCAUGUAGAAGGGCAUGAUC [Omei Ex2 A15] (Eterna round: R97, puzzle: Exclusion 2) | 23.1 nM | – | 24.9 nM | – | – | – |
| ACUCUAUAGUAGGAUAUCAUCAAACUAUUGUGAUGAGAAGGACUAACAUGAGGAUCACCCAUGUUAACGUGAAG [Mod of Brourd 5 - Jieux - Exclusion 6] (Eterna round: R97, puzzle: Exclusion 6) | 24.3 nM | – | 21.1 nM | – | – | – |
| AAGUCCUUGUGGACACAUGAGGAUCACCCAUGUGCGGUCAGCGAGGAUAUCGGUCUAUAAUGUGACGAGAAGGCGCGGACCGAU [Ex NG3 #61] (Eterna round: R96, puzzle: Exclusion NG 3) | 26.2 nM | 15.3 nM | 21.3 nM | – | – | – |
| CCUCUACAUGAGGAUCACCCAUGUGAGGAUAUGUUGACGAGCCUGAAAAGGCUGGUCAACAGAAGGCAUAUGUA [Exclusion 1 (Mod 2 solution 16 by Eternabot)] (Eterna round: R97, puzzle: Exclusion 1) | 40.3 nM | – | 18.9 nM | – | – | – |
| ACCUCACAUGAGGAUCACCCAUGUCAGGAUAUUCAAACAGGCGAAACUCCGCCUUCUCGAAGAAGGGACAUUAA [Israon] (puzzle: Exclusion 1) | – | – | – | – | 16.2 nM | – |
